In PMC6819821, “Interaction of Cholesterol With the Human SLC1A5 (ASCT2): Insights Into Structure/Function Relationships” (Frontiers in Molecular Biosciences, 2019):

B1: human SLC1A5 (ASCT2), endogenous in HeLa cells (natural protein, human (endogenous in HeLa), UniProt Q15758 1-541, looked up)
chain: MVADPPRDSKGLAAAEPTANGGLALASIEDQGAAAGGYCGSRDQVRRCLRANLLVLLTVVAVVAGVALGLGVSGAGGALALGPERLSAFVFPGELLLRLLRMIILPLVVCSLIGGAASLDPGALGRLGAWALLFFLVTTLLASALGVGLALALQPGAASAAINASVGAAGSAENAPSKEVLDSFLDLARNIFPSNLVSAAFRSYSTTYEERNITGTRVKVPVGQEVEGMNILGLVVFAIVFGVALRKLGPEGELLIRFFNSFNEATMVLVSWIMWYAPVGIMFLVAGKIVEMEDVGLLFARLGKYILCCLLGHAIHGLLVLPLIYFLFTRKNPYRFLWGIVTPLATAFGTSSSSATLPLMMKCVEENNGVAKHISRFILPIGATVNMDGAALFQCVAAVFIAQLSQQSLDFVKIITILVTATASSVGAAGIPAGGVLTLAIILEAVNLPVDHISLILAVDWLVDRSCTVLNVEGDALGAGLLQNYVDRTESRSTEPELIQVKSELPLDPLPVPTEEGNPLLKHYRGPAGDATVASEKESVM
notes: ASCT2 (SLC1A5), sodium-dependent neutral amino acid antiporter, endogenous in HeLa cells; Detected with anti-hASCT2 (rabbit, Millipore) after formaldehyde cross-linking of intact cells; also called hASCT2; source: endogenous, intact HeLa cells (cross-linked in the cells, then total lysate)
B2: recombinant hASCT2-6His WT (natural protein, human)
chain: B1 chain
notes: human ASCT2 (SLC1A5), wild type, construct pPICZB-ASCT2-6His; no cleavage of the tag is described; In the cross-linking the protein was detected with anti-hASCT2; also called purified WT hASCT2; SLC1A5; source: P. pastoris X-33 (pPICZB-ASCT2-6His), solubilised in C12E8, purified (Ni-NTA, PD-10)

Columns and labels:
[1] = biological target: the molecule itself; test: cross-linking; intact HeLa cells treated with 0.75% formaldehyde for 10 min at room temperature, stopped with 125 mM glycine; 50 ug total lysate on 8% SDS-PAGE, immunoblot with anti-hASCT2
[2] = biological target: the molecule itself; test: cross-linking; purified WT hASCT2 in detergent, without or with 0.75 mg CHEMS, 1 or 4% formaldehyde in 20 mM Tris HCl pH 9.0 for 2 min at 23°C, stopped with 1.25 M glycine; 8% SDS-PAGE, immunoblot with anti-hASCT2

| Protein | stoichiometry N [1] | stoichiometry N [2] |
| --- | --- | --- |
| B1 | 3 | – |
| B2 | – | 3 |
